B1: recombinant H7-235 IgG1 (rH7-235 IgG1) (antibody, V domains shown)
VH: QVQLVESGGGVVQPGESLRLSCAASGFAFRTYGMHWVRQAPGKGLEWVGVIWYDGSNKYYGDSVKGRFTISRDNSQNTLYLQMNSLRAEDTAVYYCARNGERWRVEDYYYGMDVWGQGTLVTVSS
VL: EIVMTQSPLSLPVTPGEPASISCRSSQSLLHSNAHNYLDWYLQKPGQSPQLLIYLGSNRASGVPDRFSGSGSGTDFTLKISRVEAEDVGIYYCMQALQTPITFGQGTRLEIK
B2: recombinant H7-235 fragment antigen-binding region (rH7-235 Fab) (Fab, V domains shown)
VH: QVQLVESGGGVVQPGESLRLSCAASGFAFRTYGMHWVRQAPGKGLEWVGVIWYDGSNKYYGDSVKGRFTISRDNSQNTLYLQMNSLRAEDTAVYYCARNGERWRVEDYYYGMDVWGQGTLVTVSS
VL: EIVMTQSPLSLPVTPGEPASISCRSSQSLLHSNAHNYLDWYLQKPGQSPQLLIYLGSNRASGVPDRFSGSGSGTDFTLKISRVEAEDVGIYYCMQALQTPITFGQGTRLEIK

What was measured:
[1] = molecular target: T1, recombinant soluble trimeric H7 HA of A/Shanghai/02/2013 H7N9 (SH13 H7) (Influenza A virus A/Shanghai/02/2013 …); experiment: ELISA
[2] = molecular target: T1, recombinant soluble trimeric H7 HA of …; experiment: BLI
[3] = molecular target: A/Shanghai/02/2013 H7N9 (SH13) hemagglutinin HA1, monomeric (Influenza A virus A/Shanghai/02/2013 …, UniProt R4NN21 1-320, biotin (EZ-Link NHS-PEG4-Biotin, antigen:biotin 1:1) in the BLI only); experiment: BLI

Row | Binder | EC50 [1] [pM] | Kd [2] [pM] | Kd [3] [pM]
1 | B1 | 30 | < 20 | < 20
2 | B2 | 160 | 2120 | 
